Values joined by “and” are separate entries in the source; they are usually repeats but may differ in a detail not shown here. Equal values may be shown once.
T1: cynomolgus IL-2R α-subunit, recombinant monomeric (cynomolgus, UniProt H6WS54 22-240)
T1 construct: also called Cyno IL-2R α
T1 sequence: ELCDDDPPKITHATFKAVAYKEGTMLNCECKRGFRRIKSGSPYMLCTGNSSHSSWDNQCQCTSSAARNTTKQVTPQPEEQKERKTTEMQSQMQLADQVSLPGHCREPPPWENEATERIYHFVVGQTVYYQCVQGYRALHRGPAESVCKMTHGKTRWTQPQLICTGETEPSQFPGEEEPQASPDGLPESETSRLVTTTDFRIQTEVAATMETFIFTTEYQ

T2: murine IL-2R α-subunit, recombinant monomeric (murine, UniProt P01590 22-236, limits assumed)
T2 construct: also called Mu IL-2R α
T2 sequence (looked up): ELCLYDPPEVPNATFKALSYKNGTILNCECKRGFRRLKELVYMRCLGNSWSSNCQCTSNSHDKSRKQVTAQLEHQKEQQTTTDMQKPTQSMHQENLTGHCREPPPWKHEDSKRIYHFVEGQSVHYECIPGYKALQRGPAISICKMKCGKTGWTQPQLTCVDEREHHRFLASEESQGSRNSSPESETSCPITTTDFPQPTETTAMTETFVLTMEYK

T3: murine IL-2R βγ heterodimer (β knob γ hole Fc fusion) (murine, UniProt P16297 27-240; P34902 23-263)
T3 construct: also called Mu IL-2R βγ; mouse IL-2R βγ heterodimer; not shown: Fc knob/hole part
T3 sequence (looked up) 1: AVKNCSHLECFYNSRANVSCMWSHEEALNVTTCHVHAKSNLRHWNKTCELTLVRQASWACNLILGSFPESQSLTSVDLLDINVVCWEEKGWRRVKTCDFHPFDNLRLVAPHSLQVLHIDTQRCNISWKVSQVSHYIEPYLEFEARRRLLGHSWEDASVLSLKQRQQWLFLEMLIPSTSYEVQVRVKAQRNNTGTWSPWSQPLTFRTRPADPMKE
T3 sequence (looked up) 2: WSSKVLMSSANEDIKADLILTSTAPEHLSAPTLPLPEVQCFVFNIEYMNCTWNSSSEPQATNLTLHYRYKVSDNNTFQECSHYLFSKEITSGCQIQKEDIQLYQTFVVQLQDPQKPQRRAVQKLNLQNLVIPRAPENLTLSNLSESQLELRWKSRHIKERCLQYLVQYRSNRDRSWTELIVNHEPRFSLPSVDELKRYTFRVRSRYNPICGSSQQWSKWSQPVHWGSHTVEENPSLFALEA

B1: human IL-2R α-subunit, monomeric, with AcTev cleavage site and Avi His tag (receptor)
chain: ELCDDDPPEIPHATFKAMAYKEGTMLNCECKRGFRRIKSGSLYMLCTGNSSHSSWDNQCQCTSSATRNTTKQVTPQPEEQKERKTTEMQSPMQPVDQASLPGHCREPPPWENEATERIYHFVVGQMVYYQCVQGYRALHRGPAESVCKMTHGKTRWTQPQLICTGVDEQLYFQGGSGLNDIFEAQKIEWHEARAHHHHHH
notes: also called Hu IL-2R α; CD25
B2: 4G8 Fab (Fab, V domains shown)
VH: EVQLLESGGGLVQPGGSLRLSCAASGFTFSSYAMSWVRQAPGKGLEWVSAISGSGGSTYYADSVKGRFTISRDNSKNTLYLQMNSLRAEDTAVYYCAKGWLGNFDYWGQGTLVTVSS
VL: EIVLTQSPGTLSLSPGERATLSCRASQSVSRSYLAWYQQKPGQAPRLLIIGASTRATGIPDRFSGSGSGTDFTLTISRLEPEDFAVYYCQQGQVIPPTFGQGTKVEIKR
B3: 29B11 Fab-IL-2 qm-Fab (other)
chain: EVQLLESGGGLVQPGGSLRLSCAASGFTFSSYAMSWVRQAPGKGLEWVSAIIGSGGITYYADSVKGRFTISRDNSKNTLYLQMNSLRAEDTAVYYCAKGWFGGFNYWGQGTLVTVSSASTKGPSVFPLAPSSKSTSGGTAALGCLVKDYFPEPVTVSWNSGALTSGVHTFPAVLQSSGLYSLSSVVTVPSSSLGTQTYICNVNHKPSNTKVDKKVEPKSCDSGGGGSGGGGSGGGGAPASSSTKKTQLQLEHLLLDLQMILNGINNYKNPKLTRMLTAKFAMPKKATELKHLQCLEEELKPLEEVLNGAQSKNFHLRPRDLISNINVIVLELKGSETTFMCEYADETATIVEFLNRWITFAQSIISTLTSGGGGSGGGGSGGGGEVQLLESGGGLVQPGGSLRLSCAASGFTFSSYAMSWVRQAPGKGLEWVSAIIGSGGITYYADSVKGRFTISRDNSKNTLYLQMNSLRAEDTAVYYCAKGWFGGFNYWGQGTLVTVSSASTKGPSVFPLAPSSKSTSGGTAALGCLVKDYFPEPVTVSWNSGALTSGVHTFPAVLQSSGLYSLSSVVTVPSSSLGTQTYICNVNHKPSNTKVDKKVEPKSCD
light: EIVLTQSPGTLSLSPGERATLSCRASQSVTSSYLAWYQQKPGQAPRLLINVGSRRATGIPDRFSGSGSGTDFTLTISRLEPEDFAVYYCQQGIMLPPTFGQGTKVEIKRTVAAPSVFIFPPSDEQLKSGTASVVCLLNNFYPREAKVQWKVDNALQSGNSQESVTEQDSKDSTYSLSSTLTLSKADYEKHKVYACEVTHQGLSSPVTKSFNRGEC
notes: Fab-IL-2-Fab immunoconjugate against FAP with quadruple mutant IL-2
B4: MHLG1-KV9 Fab-IL-2 qm-Fab (other)
chain: EVQLVESGGGLVKPGGSLRLSCAASGFTFSNYWMNWVRQAPGKGLEWVAEIRLKSNNFGRYYAASVKGRFTISRDDSKNTLYLQMNSLKTEDTAVYYCTTYGNYVGHYFDHWGQGTTVTVSSASTKGPSVFPLAPSSKSTSGGTAALGCLVKDYFPEPVTVSWNSGALTSGVHTFPAVLQSSGLYSLSSVVTVPSSSLGTQTYICNVNHKPSNTKVDKKVEPKSCDSGGGGSGGGGSGGGGAPASSSTKKTQLQLEHLLLDLQMILNGINNYKNPKLTRMLTAKFAMPKKATELKHLQCLEEELKPLEEVLNGAQSKNFHLRPRDLISNINVIVLELKGSETTFMCEYADETATIVEFLNRWITFAQSIISTLTSGGGGSGGGGSGGGGEVQLVESGGGLVKPGGSLRLSCAASGFTFSNYWMNWVRQAPGKGLEWVAEIRLKSNNFGRYYAASVKGRFTISRDDSKNTLYLQMNSLKTEDTAVYYCTTYGNYVGHYFDHWGQGTTVTVSSASTKGPSVFPLAPSSKSTSGGTAALGCLVKDYFPEPVTVSWNSGALTSGVHTFPAVLQSSGLYSLSSVVTVPSSSLGTQTYICNVNHKPSNTKVDKKVEPKSCD
light: DIQLTQSPSFLSASVGDRVTITCKASQNVDTNVAWYQQKPGQAPRPLIYSASYRYTGVPSRFSGSGSGTEFTLTISSLQPEDFATYYCQQYNSYPLTFGGGTKVEIKRTVAAPSVFIFPPSDEQLKSGTASVVCLLNNFYPREAKVQWKVDNALQSGNSQESVTEQDSKDSTYSLSSTLTLSKADYEKHKVYACEVTHQGLSSPVTKSFNRGEC
notes: Fab-IL-2-Fab immunoconjugate against MCSP with quadruple mutant IL-2; also called MHLG1 KV9 MCSP-targeted Fab-IL2QM-Fab
B5: Naked IL-2 qm (quadruple mutant T3A/F42A/Y45A/L72G, His-tagged) (ligand)
chain: APASSSTKKTQLQLEHLLLDLQMILNGINNYKNPKLTRMLTAKFAMPKKATELKHLQCLEEELKPLEEVLNGAQSKNFHLRPRDLISNINVIVLELKGSETTFMCEYADETATIVEFLNRWITFAQSIISTLTVDHHHHHH
notes: also called naked IL-2 quadruple mutant; quadruple mutant IL-2

What was measured:
[1] = target: T4, Proleukin (Novartis/Chiron), commercially available wild-type IL-2 (UniProt P60568 22-153); experiment: SPR, receptor on CM5, IL-2 analyte, 25°C, kinetic
Experimental: (§1) Subsequently, affinity for the IL-2R βγ heterodimer and the IL-2R α-subunit were determined by surface plasmon resonance (SPR). Briefly, the ligand—either human IL-2R α-subunit (Fc2) or human IL2-R β knob γ hole heterodimer (Fc3)—was immobilized on a CM5 chip. […] Flow rate was 30 l/min and the following conditions were applied for association: 180s, dissociation: 300 s, and regeneration: 2×30 s 3M MgCl₂ for IL2-R β knob γ hole heterodimer, 10 s 50 mM NaOH for IL-2R α-subunit.

[2] = target: T4, Proleukin (Novartis/Chiron), …; experiment: SPR, receptor on CM5, IL-2 analyte, 25°C, steady state
Experimental: as §1

[3] = target: T5, human FAP-His (human, UniProt Q12884 27-760); experiment: SPR, FAP-His captured via anti-His, Fab analyte, 1:1 fit, 25°C
T5 construct: also called Hu FAP; His-tagged human FAP; not shown: His tag

[4] = target: cynomolgus FAP-His (cynomolgus); experiment: as above
Experimental: The FAP binding activity of the cleaved Fab fragments used in these examples as antigen binding, moieties was determined by surface plasmon resonance (SPR) on a Biacore machine. […] Temperature was 25° C. and HBS-EP was used as buffer. […] Fitting was performed based on a 1:1 binding model, RI=0, Rmax=local (because of capture format).

[5] = target: T6, murine FAP-His (murine, UniProt P97321 27-761); experiment: as above
T6 construct: not shown: His tag

[6] = target: T5, human FAP-His; experiment: SPR, FAP-His captured via anti-His, Fab analyte, steady state, 25°C
[7] = target: cynomolgus FAP-His (cynomolgus); experiment: as above
[8] = target: T1, cynomolgus IL-2R α-subunit, recombinant …; experiment: SPR, receptor on CM5, 25°C
[9] = target: B1; experiment: SPR, receptor on CM5, 25°C
[10] = target: T2, murine IL-2R α-subunit, recombinant …; experiment: SPR, receptor on CM5, 25°C
[11] = target: T7, human FAP expressed on stably transfected HEK293 cells (human, UniProt Q12884 1-760); experiment: FACS on FAP-expressing HEK cells
T7 construct: whole, on cells
Experimental: (§2) Briefly, 250 000 cells per well were incubated with the indicated concentration of the immunoconjugates in a round-bottom 96-well plate, incubated for 30 min at 4° C., and washed once with PBS/0.1% BSA.

[12] = target: T8, cynomolgus IL-2R βγ heterodimer (β knob γ hole Fc fusion) (cynomolgus); experiment: SPR, receptor on CM5, 25°C, 1:1 fit
T8 construct: also called Cyno IL-2R βγ

[13] = target: T9, human IL-2R βγ heterodimer, subunit-Fc knobs-into-holes fusion (human); experiment: SPR, receptor on CM5, 25°C, 1:1 fit
T9 construct: The entries may hold a leader peptide; also called Hu IL-2R βγ; human IL2-R β knob γ hole heterodimer

[14] = target: T3, murine IL-2R βγ heterodimer (β knob γ …); experiment: SPR, receptor on CM5, 25°C, 1:1 fit
[15] = target: T8, cynomolgus IL-2R βγ heterodimer (β knob …); experiment: SPR, receptor on CM5, 37°C, 1:1 fit
[16] = target: T9, human IL-2R βγ heterodimer, subunit-Fc …; experiment: SPR, receptor on CM5, 37°C, 1:1 fit
[17] = target: T3, murine IL-2R βγ heterodimer (β knob γ …); experiment: SPR, receptor on CM5, 37°C, 1:1 fit
[18] = target: T7, human FAP expressed on stably …; experiment: FACS on HEK 293-human FAP cells, median fluorescence against concentration
Experimental: as §2

[19] = target: T5, human FAP-His; experiment: SPR bridging: construct captured on immobilized human IL-2R βγ, human FAP analyte, 1:1 fit, 25°C
Experimental: Briefly, the human IL 2R βγ knob-into-hole construct was immobilized on a CM5 chip chemically and 10 nM Fab-IL-2-Fib constructs were captured for 90 s. Human FAP served as analyte at concentrations of 200 nM down to 0.2 nM. Conditions were: temperature: 25° C., buffer: HBS-EP, flow: 30 μl/min, association: 90 s, dissociation: 120 s. Regeneration was done for 60 s with 10 mM glycine pH 2. Fitting was performed with a model for 1:1 binding, RI≠0, Rmax-global.

[20] = target: T10, human DPPIV on transfected HEK 293 cells (human, UniProt P27487 1-766); experiment: FACS on HEK 293-human DPPIV cells, with HEK mock-transfected cells, cells only and sec. antibody as controls; concentration not shown
T10 construct: whole, on cells; also called CD26

[21] = target: FAP on GM05389 fibroblasts; experiment: FACS on GM05389 fibroblasts, surface-bound construct detected with secondary antibody after the times shown (internalization analysis); concentration not shown
[22] = target: T9, human IL-2R βγ heterodimer, subunit-Fc …; experiment: SPR, receptor on CM5, 25°C, kinetic
Experimental: (§3) Analyte concentration was 300 nM down to 0.4 nM (1:3 dil.) for IL-2R βγ at a flow of 30 p/min (association time 180 s, dissociation time 300 s). Regeneration was done for 2×30 s with 3M MgCl₂ for IL-2R βγ. Data were fitted using a 1:1 binding, RI≠0, Rmax=local for IL-2R βγ.
(§4) Regeneration was done for 10 s with 50 mM NaOH for IL-2R α. Data were fitted using a 1:1 binding, RI=0, Rmax-global for IL-2R α.

[23] = target: B1; experiment: SPR, receptor on CM5, 25°C, kinetic
Experimental: as §3, §4

[24] = target: B1; experiment: SPR, receptor on CM5, kinetic
[25] = target: T9, human IL-2R βγ heterodimer, subunit-Fc …; experiment: SPR, receptor on CM5, IL-2 analyte, 25°C, kinetic
Experimental: as §1

T4 sequence (P60568 other isoform, or with tags, fused parts or gaps limits assumed, form in doubt): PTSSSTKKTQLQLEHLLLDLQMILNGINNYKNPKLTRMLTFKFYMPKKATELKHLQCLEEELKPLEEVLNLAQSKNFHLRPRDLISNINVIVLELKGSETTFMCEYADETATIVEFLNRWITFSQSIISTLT

Binder: B1
- Kd [1]: 7.5 nM and 12.5 nM
- Kd [2]: 19 nM and 17.8 nM

Binder: B2
- Kd [3]: 53 nM and 51 nM
- Kd [4]: 33 nM and 35 nM
- Kd [5]: 0.07 nM
- Kd [6]: 48 nM
- Kd [7]: 33 nM and 34 nM

Binder: B3
- binding result [8]: no binding (tested: 25 nM)
- binding result [9]: no binding (tested: 25 nM)
- binding result [10]: no binding (tested: 25 nM)
- EC50 [11]: 0.85 nM
- Kd [12]: 7.8 nM and 8.4 nM
- Kd [13]: 12 nM and 7.4 nM
- Kd [14]: 60 nM and 63 nM
- Kd [15]: 16.7 nM and 18.1 nM
- Kd [16]: 13.1 nM and 13 nM
- Kd [17]: 44 nM and 42 nM
- EC50 (read off the curve) [18]: ~20 nM
- Kd [19]: 0.89 nM
- binding result [20]: no binding
- binding result [21]: binds

Binder: B4
- Kd [22]: 7.3 nM and 10.7 nM
- binding result [23]: no binding (tested: 33.3 nM)

Binder: B5
- binding result [24]: no binding (tested: 300 nM)
- Kd [25]: 2.7 nM and 2 nM

From US20190322765A1 (Hoffmann-La Roche, published 2019)
